Publication PMC4465127 (Nature Communications, 2015)

B1: sLET-23ΔIV/V (LET-23 extracellular region with domains IV and V deleted) (domain or fragment, C. elegans, UniProt P24348 21-539, looked up)
chain: FGNSNAQLWKRCVSPQDCLCSGTTNGISRYGTGNILEDLETMYRGCRRVYGNLEITWIEANEIKKWRESTNSTVDPKNEDSPLKSINFFDNLEEIRGSLIIYRANIQKISFPRLRVIYGDEVFHDNALYIHKNDKVHEVVMRELRVIRNGSVTIQDNPKMCYIGDKIDWKELLYDPDVQKVETTNSHQHCYQNGKSMAKCHESCNDKCWGSGDNDCQRVYRSVCPKSCSQCFYSNSTSSYECCDSACLGGCTGHGPKNCIACSKYELDGICIETCPSRKIFNHKTGRLVFNPDGRYQNGNHCVKECPPELLIENDVCVRHCSDGHHYDATKDVRECEKCRSSSCPKICTVDGHLTNETLKNLEGCEQIDGHLIIEHAFTYEQLKVLETVKIVSEYITIVQQNFYDLKFLKNLQIIEGRKLHNVRWALAIYQCDDLEELSLNSLKLIKTGAVLIMKNHRLCYVSKIDWSSIITSKGKDNKPSLAIAENRDSKLCETEQRVCDKNCNKRGCWGKEPEDCLE
notes: signal peptide in the construct; LET-23 of C. elegans, extracellular domains I-III (domains IV and V deleted); source: Sf9 cells (baculovirus), purified from conditioned medium (Ni-NTA, cation exchange, Superose 6)
B2: LET-23 extracellular region (sLET-23) (domain or fragment, C. elegans, UniProt P24348 21-819, looked up)
chain: FGNSNAQLWKRCVSPQDCLCSGTTNGISRYGTGNILEDLETMYRGCRRVYGNLEITWIEANEIKKWRESTNSTVDPKNEDSPLKSINFFDNLEEIRGSLIIYRANIQKISFPRLRVIYGDEVFHDNALYIHKNDKVHEVVMRELRVIRNGSVTIQDNPKMCYIGDKIDWKELLYDPDVQKVETTNSHQHCYQNGKSMAKCHESCNDKCWGSGDNDCQRVYRSVCPKSCSQCFYSNSTSSYECCDSACLGGCTGHGPKNCIACSKYELDGICIETCPSRKIFNHKTGRLVFNPDGRYQNGNHCVKECPPELLIENDVCVRHCSDGHHYDATKDVRECEKCRSSSCPKICTVDGHLTNETLKNLEGCEQIDGHLIIEHAFTYEQLKVLETVKIVSEYITIVQQNFYDLKFLKNLQIIEGRKLHNVRWALAIYQCDDLEELSLNSLKLIKTGAVLIMKNHRLCYVSKIDWSSIITSKGKDNKPSLAIAENRDSKLCETEQRVCDKNCNKRGCWGKEPEDCLECKTWKSVGTCVEKCDTKGFLRNQTSMKCERCSPECETCNGLGELDCLTCRHKTLYNSDFGNRMECVHDCPVSHFPTQKNVCEKCHPTCYDNGCTGPDSNLGYGGCKQCKYAVKYENDTIFCLQSSGMNNVCVENDLPNYYISTYDTEGVIETHCEKCSISCKTCSSAGRNVVQNKCVCKHVEYQPNPSERICMDQCPVNSFMVPDTNNTVCKKCHHECDQNYHCANGQSTGCQKCKNFTVFKGDIAQCVSECPKNLPFSNPANGECLDYDIASRQRKTRM
notes: signal peptide in the construct; LET-23, the C. elegans EGFR orthologue, extracellular region with domains I-V; Glycosylated (six predicted N-glycosylation sites); Constitutive dimer by SEC and SE-AUC; also called isolated LET-23 extracellular region; C. elegans EGFR extracellular region; source: Sf9 cells (baculovirus), purified from conditioned medium (Ni-NTA, cation exchange, Superose 6)
B3: sLET-23ΔV (LET-23 extracellular region with domain V deleted) (domain or fragment, C. elegans, UniProt P24348 21-645, looked up)
chain: FGNSNAQLWKRCVSPQDCLCSGTTNGISRYGTGNILEDLETMYRGCRRVYGNLEITWIEANEIKKWRESTNSTVDPKNEDSPLKSINFFDNLEEIRGSLIIYRANIQKISFPRLRVIYGDEVFHDNALYIHKNDKVHEVVMRELRVIRNGSVTIQDNPKMCYIGDKIDWKELLYDPDVQKVETTNSHQHCYQNGKSMAKCHESCNDKCWGSGDNDCQRVYRSVCPKSCSQCFYSNSTSSYECCDSACLGGCTGHGPKNCIACSKYELDGICIETCPSRKIFNHKTGRLVFNPDGRYQNGNHCVKECPPELLIENDVCVRHCSDGHHYDATKDVRECEKCRSSSCPKICTVDGHLTNETLKNLEGCEQIDGHLIIEHAFTYEQLKVLETVKIVSEYITIVQQNFYDLKFLKNLQIIEGRKLHNVRWALAIYQCDDLEELSLNSLKLIKTGAVLIMKNHRLCYVSKIDWSSIITSKGKDNKPSLAIAENRDSKLCETEQRVCDKNCNKRGCWGKEPEDCLECKTWKSVGTCVEKCDTKGFLRNQTSMKCERCSPECETCNGLGELDCLTCRHKTLYNSDFGNRMECVHDCPVSHFPTQKNVCEKCHPTCYDNGCTGPDSNLGYGGCK
notes: signal peptide in the construct; LET-23 of C. elegans, extracellular domains I-IV (domain V deleted); Dimer by SEC-MALS, SE-AUC and SAXS; source: Sf9 cells (baculovirus), purified from conditioned medium (Ni-NTA, cation exchange, Superose 6)

What was measured:
[1] = target: the molecule itself; test: AUC; sedimentation equilibrium, without ligand; 1 to 8 μM receptor, 10 mM Hepes pH 8.0, 150 mM NaCl, 20 °C, three speeds; dimer to monomers
[2] = target: the molecule itself; test: AUC; sedimentation equilibrium with 50-70 μM LIN-3^EGF added; 1 to 8 μM receptor, 10 mM Hepes pH 8.0, 150 mM NaCl, 20 °C, three speeds; dimer to monomers
[3] = target: the molecule itself; test: SEC; unliganded sLET-23 during initial purification; Superose 6 10/300 GL, 10 mM Hepes pH 8.0, 150 mM NaCl
[4] = target: the molecule itself; test: SAXS; home source, I(0)/c, without ligand; 4 °C, pH 8.0, 1.2 to 5 mg/ml protein

Protein	Kd [1] [µM]	Kd [2] [µM]	stoichiometry N [3]	stoichiometry N [4]
B1	30	5	–	–
B2	< 1	–	2	–
B3	–	–	–	2
